Values of other authors as cited in PMC5855614.

Target: Galectin-3 (Homo sapiens) (UniProt P17931)
Sequence (P17931 2-250): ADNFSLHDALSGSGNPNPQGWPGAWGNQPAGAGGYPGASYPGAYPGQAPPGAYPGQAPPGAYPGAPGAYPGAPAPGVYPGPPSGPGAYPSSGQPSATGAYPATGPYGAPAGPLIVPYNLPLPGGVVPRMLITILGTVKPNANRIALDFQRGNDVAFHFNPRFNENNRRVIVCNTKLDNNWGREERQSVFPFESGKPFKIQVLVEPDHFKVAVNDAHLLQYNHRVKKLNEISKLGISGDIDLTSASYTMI

Kd: 72 nM
Substance: G3-C12
